Reference: paper PMC3103402

What follows are binders tested against CBF-A (hnRNP A/B), p37 isoform (UniProt Q99020 1-285) (assay: EMSA).
CBF-A (hnRNP A/B), p37 isoform, sequence (Q99020 whole entry, canonical isoform): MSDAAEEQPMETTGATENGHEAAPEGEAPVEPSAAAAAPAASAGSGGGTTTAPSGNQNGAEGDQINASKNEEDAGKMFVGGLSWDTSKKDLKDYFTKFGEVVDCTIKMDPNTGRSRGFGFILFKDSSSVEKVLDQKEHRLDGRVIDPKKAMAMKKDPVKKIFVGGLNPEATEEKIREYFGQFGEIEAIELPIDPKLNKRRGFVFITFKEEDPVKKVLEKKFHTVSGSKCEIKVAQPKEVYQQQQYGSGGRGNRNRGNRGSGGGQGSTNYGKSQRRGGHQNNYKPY

Binding result, binds:
AACGCCAGUGAGCCAGGAACU (ssRNA) [CaMKIIα wtRTS], GCUGAGGAGGAGGAGAUCAUU (ssRNA) [Arc wtRTS], AUGGACCCAAUGAGAACUAGU (ssRNA) [BDNF wtRTS]
